T1: HGREM1-His (ACRO) (human, UniProt O60565 25-184)
T1 construct: Lys25-Asp184 of NP_037504 with C-terminal polyhistidine tag (ACRO GR1-H52H3); they are put here; also called hGREM1 (ACRO); human gremlin (ACRO)
T1 sequence: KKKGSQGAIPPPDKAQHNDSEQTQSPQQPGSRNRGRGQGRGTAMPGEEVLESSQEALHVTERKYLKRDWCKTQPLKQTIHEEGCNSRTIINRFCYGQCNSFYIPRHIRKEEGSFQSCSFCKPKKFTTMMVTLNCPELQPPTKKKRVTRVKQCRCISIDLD

T2: DAN-his (Sinobiological) (human, UniProt P41271 17-181, limits assumed)
T2 construct: also called DAN (Sinobiological); human DAN-his
T2 sequence (looked up): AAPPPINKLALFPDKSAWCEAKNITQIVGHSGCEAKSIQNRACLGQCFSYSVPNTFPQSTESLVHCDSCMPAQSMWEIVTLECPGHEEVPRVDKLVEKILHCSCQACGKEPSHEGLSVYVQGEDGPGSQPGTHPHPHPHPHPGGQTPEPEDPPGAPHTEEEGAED

T3: XM5-Fc (human (hGREM1 with residues 123-143 …))
T3 construct: also called gremlin 1-DAN fusion protein
T3 chain: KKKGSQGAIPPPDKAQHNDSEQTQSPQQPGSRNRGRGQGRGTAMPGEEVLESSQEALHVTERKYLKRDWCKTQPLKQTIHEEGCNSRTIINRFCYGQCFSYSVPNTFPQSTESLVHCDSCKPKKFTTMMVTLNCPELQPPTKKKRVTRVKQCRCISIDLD

T4: Mouse Gremlin-His (R&D) (mouse, UniProt O70326 25-184)
T4 construct: Lys25-Asp184 with 10xHis, R&D 956-GR; also called mouse gremlin (R&D); mGREM1
T4 sequence: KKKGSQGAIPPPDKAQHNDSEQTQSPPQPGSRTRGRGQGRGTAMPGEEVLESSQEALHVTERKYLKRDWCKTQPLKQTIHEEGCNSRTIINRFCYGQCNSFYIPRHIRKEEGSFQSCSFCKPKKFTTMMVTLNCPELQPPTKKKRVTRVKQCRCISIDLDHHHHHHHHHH

B1: 36F5 (antibody, V domains shown)
VH: QVQLQQSGAELARPGASVKLSCKASGYSFTSSGIGWVKQRSGQGLEWIGEIYPRSGNTYNNEKFKGKATLTADKSSSTVYMELRSLTSEDSAVYFCVREAYSHHYYAMDYWGQGTSVTVFS
VL: DVLMTQTPLSLPVSLGGQASISCRSSQSLLHSNGNTYLEWYLQKPGQSPKLLIYKVSNRFSGVPDRLSGSGSGTDFTLKISRVEAEDLGVYYCFQGSHVPFTFGSGTKLEIN
notes: mouse hybridoma antibody; also called hybridoma 36F5
B2: 14E3 (antibody, V domains shown)
VH: QIQLVQSGPELKKPGETVKISCKTSGSTFTTYGMAWMKQAPGKGLTWMGWINTLSGEPTYADDFKGRFAFSLKTSANTAYLQINNLKNEDAATYFCAREPMDYWGQGTSVIVSS
VL: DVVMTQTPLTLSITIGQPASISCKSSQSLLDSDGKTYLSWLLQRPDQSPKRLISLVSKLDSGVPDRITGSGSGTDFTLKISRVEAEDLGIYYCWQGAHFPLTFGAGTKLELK
notes: mouse hybridoma antibody; also called hybridoma 14E3; anti-gremlin1 antibody 14E3

Experiments:
[1] = biological target: T1, HGREM1-His (ACRO); assay: ELISA on coated Gremlin-his; unit from the axis Ab(nM)
Method: (§1) Clear polystyrene plates (BEAVER) were coated with 100 μl/well of a 0.5 μg/ml human gremlin (ACRO) and DAN (Sinobiological) in high pH coating buffer overnight at 4° C. Then the plates were washed once on an automatic plate washer using PBS+0.1% Tween 20 (Sigma). 100 μl of block solution consisting of PBS+1% BSA+1% normal goat serum+0.5% Tween 20 (Sigma) was added to each well and incubated at room temperature for 2 hours. Then 100 ul of antibodies (hybridoma or chimeric antibody 36F5, chimeric antibody 67G11, chimeric antibody 42B9) in antibody dilution buffer containing PBS+1% BSA+1% normal goat serum+0.01% Tween 20 starting from 2 μg/ml (13.33 nM) and then 4 fold serial dilution were added to each well of the plate and incubated for 1 hours at room temperature. Afterward the plates were washed three times with 200 ul of PBS+0.1% Tween20 followed by adding 100 μl/well 1:10000 Goat anti mouse IgG-HRP or mouse anti-human IgG-HRP (abcam), and incubate for 1 hour at room temperature. They were then washed 3× with PBS+0.1% Tween20. Finally, 100 μl/well of TMB (InnoReagents) was added to each well and after 2 minutes add 50 ul of stop solution to each well. The plates were read on a Multiscan FC microplate reader (Thermo Scientific) at 450 nm.

[2] = biological target: T2, DAN-his (Sinobiological); assay: ELISA on coated DAN-his; unit from the axis Ab(nM)
Method: as §1

[3] = biological target: T1, HGREM1-His (ACRO); assay: blocking ELISA, Human Gremlin-1 binding to BMP7; column OD450
Method: In addition, the ability of serial dilutions of antibodies provided herein to block Gremlin binding to human BMP2/4/7 was also examined via ELISA. Plates were coated with recombinant human BMP2/4/7 (0.5 μg/ml) overnight and then serial dilutions of antibodies were incubated with 1 μg/ml of human Gremlin-his modified for 1 h at RT before this complex was added to coated plates and allowed to incubate for an additional hour at RT. The plates were then washed and added with anti-his HRP (GenScript). Plates were then developed with a TMB solution and stopped by adding stop solution. The plates were read on a plate reader at 450 nm. […] The chimeric anti-gremlin 1 antibodies (69H5-chi) and chimeric anti-gremlin 1 antibodies (22F1-chi) also can inhibit the binding of gremlin to BMP2 and BMP4 (see, FIG. 3E and FIG. 3F). The chimeric anti-gremlin 1 antibodies (56C11-chi) can inhibit the binding of gremlin to BMP2 (see, FIG. 3E).

[4] = biological target: T3, XM5-Fc; assay: ELISA on coated XM5-Fc (column XM5)
Method: Binding affinities to hGREM1 and XM5 were also compared. Briefly, XM5-Fc or Gremlin-his […] was coated. 100 μl of block solution consisting of PBS+1% BSA+1% normal goat serum+0.5% Tween 20 (Sigma) was added to each well and incubated at room temperature for 2 hours. 4-fold serial antibody dilution from 2 μg/ml were added. Afterward the plates were washed three times with 200 ul of PBS+0.1% Tween20 followed by adding 100 μl/well 1:10000 Goat anti mouse IgG-HRP (abeam), and incubate for 1 hour at room temperature. They were then washed 3× with PBS+0.1% Tween20. Finally, 100 μl/well of TMB (InnoReagents) was added to each well and after 2 minutes add 50 ul of stop solution to each well. The plates were read on a Multiscan FC microplate reader (Thermo Scientific) at […]. The EC50 values were show in table below.

[5] = biological target: T4, Mouse Gremlin-His (R&D); assay: ELISA on coated Mouse Gremlin-his, anti-mouse IgG-HRP
Method: Clear polystyrene plates (BEAVER) were coated with 100 μl/well of a […] hGREM1 (ACRO) and mouse gremlin (R&D) in high pH coating buffer overnight at 4° C. Then the plates were washed once on an automatic plate washer using PBS+0.1% Tween 20 (Sigma). 100 μl of block solution consisting of PBS+1% BSA+1% normal goat serum+0.5% Tween 20 (Sigma) was added to each well and incubated at room temperature for 2 hours. Then 100 μl of antibodies in antibody dilution buffer containing PBS+1% BSA+1% normal goat serum+0.01% Tween 20 starting from 2 μg/ml and then serial dilutions were added to each well of the plate and incubated for 1 hours at room temperature. Afterward the plates were washed three times with 200 μl of PBS+0.1% Tween20 followed by adding 100 μl/well 1:10000 Goat anti mouse IgG-HRP (abcam), and incubate for 1 hour at room temperature. They were then washed 3× with PBS+0.1% Tween20. Finally, 100 µl/well of TMB (Pierce) was added to each well and after several minutes add 50 μl of stop solution to each well. The plates were read on a Multiscan FC microplate reader (Thermo Scientific) at […].

| Binder | EC50 [1] [nM] | EC50 [2] [nM] | IC50 [3] [µg/mL] | EC50 [4] [µg/mL] | binding result [5] |
| --- | --- | --- | --- | --- | --- |
| B1 | 0.0309 | 0.0309 | 0.683 | 0.00692 | – |
| B2 | – | – | – | – | no binding |
